In PMC2880635:
Changes are numbered by the printed parent chain. Names and notes keep the numbering of the source.

Substrate: O=[N+]([O-])c1ccc(OP(=O)(O)O)cc1
Assay: purified protein, by the assay type
Conditions: other: substrate pNPP
[1] = Sts-2PGM(E481V), pH 5.0, 37 °C, pH 5.0
[2] = Sts-2PGM(E481V), pH 7.5, 37 °C, pH 7.5
[3] = Sts-2PGM(S552A/S582Y), pH 5.0, 37 °C, pH 5.0
[4] = Sts-2PGM(S552A/S582Y), pH 7.5, 37 °C, pH 7.5
[5] = Sts-2PGM(Q372V/S582Y), pH 7.5, 37 °C, pH 7.5
[6] = Sts-2PGM(A446S/S552A), pH 7.5, 37 °C, pH 7.5
[7] = Sts-1PGM, pH 5.0, 37 °C, pH 5.0
[8] = Sts-1PGM, pH 7.5, 37 °C, pH 7.5
[9] = Sts-2PGM wild-type, pH 5.0, 37 °C, pH 5.0
[10] = Sts-2PGM wild-type, pH 7.5, 37 °C, pH 7.5

B1: Sts-2PGM(E481V) (Mus musculus; E481V) (protein)
chain: ATISRRGILVVRHGERVDQVFGKSWLQQCTTADGKYYRPDLNFPRSLPRRSNGIKDFENDPPLSSCGIFQARLAGEALLDSGVRVTAVFASPALRCVQTAKHILEELKLEKKLKIRVEPGIFEWMKWVASKATLTFLTLEELKEANFNVDLDYRPALPRCSLMPAESYDQYVERCAVSMGQIINTCPQDMGITLIVSHSSALDSCTRPLLGLPPRECGDFAQLVRKIPSLGMCFCEENREDGKWDLVNPPVKTLTHGANSVFNWRNWISSN
[1]
  Km: 200 ± 20 µM
  kcat: 0.65 s⁻¹
  kcat/Km: 3100 M⁻¹ s⁻¹
[2]
  Km: 1000 ± 150 µM
  kcat: 0.15 s⁻¹
  kcat/Km: 150 M⁻¹ s⁻¹

B2: Sts-2PGM(S552A/S582Y) (Mus musculus; S552A/S582Y) (protein)
chain: B1 chain with V128E, S199A, S229Y
[3]
  Km: 620 ± 100 µM
  kcat: 2.9 s⁻¹
  kcat/Km: 4700 M⁻¹ s⁻¹
[4]
  Km: 1900 ± 200 µM
  kcat: 0.43 s⁻¹
  kcat/Km: 226 M⁻¹ s⁻¹

B3: Sts-2PGM(Q372V/S582Y) (Mus musculus; Q372V/S582Y) (protein)
chain: B1 chain with Q19V, V128E, S229Y
[5]
  Km: 700 ± 100 µM
  kcat: 0.4 s⁻¹
  kcat/Km: 571 M⁻¹ s⁻¹

B4: Sts-2PGM(A446S/S552A) (Mus musculus; A446S/S552A) (protein)
chain: B1 chain with A93S, V128E, S199A
[6]
  Km: 640 ± 80 µM
  kcat: 0.27 s⁻¹
  kcat/Km: 420 M⁻¹ s⁻¹

B5: Sts-1PGM (Mus musculus) (protein)
chain: GPQKRCLFVCRHGERMDVVFGKYWLSQCFDAKGRYIRTNLNMPHSLPQRSGGFRDYEKDAPITVFGCMQARLVGEALLESNTVIDHVYCSPSLRCVQTAHNILKGLQQDNHLKIRVEPGLFEWTKWVAGSTLPAWIPPSELAAANLSVDTTYRPHIPVSKLAISESYDTYINRSFQVTKEIISECKSKGNNILIVAHASSLEACTCQLQGLSPQNSKDFVQMVRKIPYLGFCSCEELGETGIWQLTDPPILPLTHGPTGGFNWRETLLQE
[7]
  Km: 20 ± 9 µM
  kcat: 63.4 s⁻¹
  kcat/Km: 3.15e+06 M⁻¹ s⁻¹
[8]
  Km: 500 ± 60 µM
  kcat: 70 s⁻¹
  kcat/Km: 141000 M⁻¹ s⁻¹

B6: Sts-2PGM (Mus musculus) (protein)
chain: B1 chain with V128E
[9]
  Km: 1500 ± 80 µM
  kcat: 0.3 s⁻¹
  kcat/Km: 200 M⁻¹ s⁻¹
[10]
  Km: 2000 ± 130 µM
  kcat: 0.03 s⁻¹
  kcat/Km: 15 M⁻¹ s⁻¹
